Laboratory results from the RNAGym collection of RNA variant scans (doi:10.1093/nar/gkz1192).

B1: CPEB3 Ribozyme (parent)
chain: UAACAGGGGGCCACAGCAGAAGCGUUCACGUCGCAGCCCCUGUCAGAUUCUGGUGAAUCUGCGAAUUCUGCUGUAUAUCUC

Variants of: B1
Test: self-cleavage, relative activity (ratio to wild type); higher = more cleavage; in vitro, sequencing
Summary of the method: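 Libraries of CPEB3 self-cleaving ribozyme mutants came from rounds of error-prone PCR and carried barcodes, which DNA sequencing matched to variants. In vitro transcription used T7 RNA polymerase at 37°C for 5 hours, with a further 15 min in DNase I before EDTA stopped the reaction; the ribozymes cleaved during both steps. The RNA was reverse transcribed with template switching and sequenced on Illumina. Relative activity is the cleaved/total read fraction of a variant divided by that of the unmutated ribozyme, averaged over three batches with at least 5 reads.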

Row | Variant | self-cleavage
1 | UAACAGGGGGCCACAGCAGAAGCGCUCACGUCGCAGCCCCUGUCAGAUUCUGGUGAAUCUGCGAAUUCUCCUGUAUAUCUC [U25C G70C] | 0.11
2 | UAACAGGGGGCCACAGCAGAAGCGCUCACGUCGCAGCCCCUGUCAGAUUCUGGUAAAUCUGCGAAUUCUGCUGUAUAUCUC [U25C G55A] | 0.28
3 | UAACAGGGGGCCACAGCAGAAGCGCUCACGUCGCAGCCCCUGUCAGAUUCUGGUUAAUCUGCGAAUUCUGCUGUAUAUCUC [U25C G55U] | 0.21
4 | UAACAGGGGGCCACAGCAGAAGCGCUCACGUCGCAGCCCCUGUCAGAUUCUGGUCAAUCUGCGAAUUCUGCUGUAUAUCUC [U25C G55C] | 0.33
5 | UAACAGGGGGCCACAGCAGAAGCGCUCACGUCGCAGCCCCUGUCAGAUUCUGGUGAAUCUGGGAAUUCUGCUGUAUAUCUC [U25C C62G] | 0.18
6 | UAACAGGGGGCCACAGCAGAAGCGCUCACGUCGCAGCCCCUGUCAGAUUCUGGUGAAUCUGUGAAUUCUGCUGUAUAUCUC [U25C C62U] | 0.11
7 | UAACAGGGGGCCACAGCAGAAGCGCUCACGUCGCAGCCCCUGUCAGAUUCUGGUGAAUCUCCGAAUUCUGCUGUAUAUCUC [U25C G61C] | 0.15
8 | UAACAGGGGGCCACAGCAGAAGCGCUCACGUCGCAGCCCCUGUCAGAUUCUGGUGAAUCUUCGAAUUCUGCUGUAUAUCUC [U25C G61U] | 0.17
9 | UAACAGGGGGCCACAGCAGAAGCGCUCACGUCGCAGCCCCUGUCAGAUUCUGGUGAAUCUACGAAUUCUGCUGUAUAUCUC [U25C G61A] | 0.15
10 | UAACAGGGGGCCACAGCAGAAGCGCUCACGUCGCAGCCCCGGUCAGAUUCUGGUGAAUCUGCGAAUUCUGCUGUAUAUCUC [U25C U41G] | 0.27
11 | UAACAGGGGGCCACAGCAGAAGCGCUCACGUCGCAGCCCCCGUCAGAUUCUGGUGAAUCUGCGAAUUCUGCUGUAUAUCUC [U25C U41C] | 0.28
12 | UAACAGGGGGCCACAGCAGAAGCGCUCACGUCGCAGCCCCAGUCAGAUUCUGGUGAAUCUGCGAAUUCUGCUGUAUAUCUC [U25C U41A] | 0.3
13 | UAACAGGGGGCCACAGCAGAAGCGCUCACGUCGCAGCCCCUGUCAGAUUCAGGUGAAUCUGCGAAUUCUGCUGUAUAUCUC [U25C U51A] | 0.27
14 | UAACAGGGGGCCACAGCAGAAGCGCUCACGUCGCAGCCCCUGUCAGAUUCCGGUGAAUCUGCGAAUUCUGCUGUAUAUCUC [U25C U51C] | 0.26
15 | UAACAGGGGGCCACAGCAGAAGCGCUCACGUCGCAGCCCCUGUCAGAUUCGGGUGAAUCUGCGAAUUCUGCUGUAUAUCUC [U25C U51G] | 0.12
16 | UAACAGGGGGCCACAGCAGAAGCGCUCACUUCGCAGCCCCUGUCAGAUUCUGGUGAAUCUGCGAAUUCUGCUGUAUAUCUC [U25C G30U] | 0.16
17 | UAACAGGGGGCCACAGCAGAAGCGCUCACCUCGCAGCCCCUGUCAGAUUCUGGUGAAUCUGCGAAUUCUGCUGUAUAUCUC [U25C G30C] | 0.26

Row | Variant | self-cleavage
18 | UAACAGGGGGCCACAGCAGAAGCGCUCACAUCGCAGCCCCUGUCAGAUUCUGGUGAAUCUGCGAAUUCUGCUGUAUAUCUC [U25C G30A] | 0.33
19 | UAACAGGGGGCCACAGCAGAAGCGCUCACGUCGCAGCCCCUGUCAGAAUCUGGUGAAUCUGCGAAUUCUGCUGUAUAUCUC [U25C U48A] | 0.31
20 | UAACAGGGGGCCACAGCAGAAGCGCUCACGUCGCAGCCCCUGUCAGACUCUGGUGAAUCUGCGAAUUCUGCUGUAUAUCUC [U25C U48C] | 0.26
21 | UAACAGGGGGCCACAGCAGAAGCGCUCACGUCGCAGCCCCUGUCAGAGUCUGGUGAAUCUGCGAAUUCUGCUGUAUAUCUC [U25C U48G] | 0.39
22 | UAACAGGGGGCCACAGCAGAAGCGCUCACGUCGCAGCCCCUGUCAGAUUCUGGUGAAUCUGCGAAUUCUGCUGUAUAUUUC [U25C C79U] | 0.34
23 | UAACAGGGGGCCACAGCAGAAGCGCUCACGUCGCAGCCCCUGUCAGAUUCUGGUGAAUCUGCGAAUUCUGCUGUAUAUGUC [U25C C79G] | 0.26
24 | UAACAGGGGGCCACAGCAGAAGCGCUCACGUCGCAGCCCCUGUCAGAUUCUGGUGAAUCUGCGAAUUCUGCUGUAUAUAUC [U25C C79A] | 0.35
25 | UAACAGGGGGCCACAGCAGAAGCGCUCACGUCCCAGCCCCUGUCAGAUUCUGGUGAAUCUGCGAAUUCUGCUGUAUAUCUC [U25C G33C] | 0.16
26 | UAACAGGGGGCCACAGCAGAAGCGCUCACGUCUCAGCCCCUGUCAGAUUCUGGUGAAUCUGCGAAUUCUGCUGUAUAUCUC [U25C G33U] | 0.15
27 | UAACAGGGGGCCACAGCAGAAGCGCUCACGUCACAGCCCCUGUCAGAUUCUGGUGAAUCUGCGAAUUCUGCUGUAUAUCUC [U25C G33A] | 0.25
28 | UAACAGGGGGCCACAGCAGAAGCGCUCACGUCGCAGCCCCUCUCAGAUUCUGGUGAAUCUGCGAAUUCUGCUGUAUAUCUC [U25C G42C] | 0.33
29 | UAACAGGGGGCCACAGCAGAAGCGCUCACGUCGCAGCCCCUUUCAGAUUCUGGUGAAUCUGCGAAUUCUGCUGUAUAUCUC [U25C G42U] | 0.5
30 | UAACAGGGGGCCACAGCAGAAGCGCUCACGUCGCAGCCCCUGUCAGAUUCUGGUGAAUAUGCGAAUUCUGCUGUAUAUCUC [U25C C59A] | 0.16
31 | UAACAGGGGGCCACAGCAGAAGCGCUCACGUCGCAGCCCCUGUCAGAUUCUGGUGAAUUUGCGAAUUCUGCUGUAUAUCUC [U25C C59U] | 0.28
32 | UAACAGGGGGCCACAGCAGAAGCGCUCACGUCGCAGCCCCUGUCAGAUUCUGGUGAAUCUGCGAAUUCUGCUGUAUAUCUU [U25C C81U] | 0.15
33 | UAACAGGGGGCCACAGCAGAAGCGCUCACGUCGCAGCCCCUGUCAGAUUCUGGUGAAUCUGCGAAUUCUGCUGUAUAUCUG [U25C C81G] | 0.22
34 | UAACAGGGGGCCACAGCAGAAGCGCUCACGUCGCAGCCCCUGUCAGAUUCUGGUGAAUCUGCGAAUUCUGCUGUAUAUCUA [U25C C81A] | 0.23
